Positions count from the first letter of the chain named.
B1: wt IL-22 (ligand)
chain: APISSHCRLDKSNFQQPYITNRTFMLAKEASLADNNTDVRLIGEKLFHGVSMSERCYLMKQVLNFTLEEVLFPQSDRFQPYMQEVVPFLARLSNRLSTCHIEGDDLHIQRNVQKLKDTVKKLGESGEIKAIGELDLLFMSLRNACI
B2: hB3-his (ligand)
chain: APISSHCRLDKENFQQPYITNRTFMLAKEASLADNNTDVRLIGEKLFHGVSMSERCYLMKQVLNFTLEEVLFPQSDRFQPYMAEVVPFLAALSNALSTCHIEGDDLHIQRNVQKLKDTVKKLGESGEIKAIGELDLLFMSLRNACIHHHHHH
B3: 40K-PEG-IL22-P50C (ligand)
chain: B1 chain with P17C
modifications: Cys at position 17 (SEQ ID NO:1 numbering) conjugated to 40 kDa PEG-maleimide (thioether linkage)
B4: 60K-PEG-IL22-P50C (ligand)
chain: B1 chain with P17C
modifications: Cys at position 17 (SEQ ID NO:1 numbering) conjugated to 60 kDa PEG-maleimide (thioether linkage)
B5: 80K-PEG-IL22-P50C (ligand)
chain: B1 chain with P17C
modifications: Cys at position 17 (SEQ ID NO:1 numbering) conjugated to 80 kDa PEG-maleimide (thioether linkage)
B6: 40K-PEG-IL22-D109C (ligand)
chain: B1 chain with D76C
modifications: Cys at position 76 (SEQ ID NO:1 numbering) conjugated to 40 kDa PEG-maleimide (thioether linkage)
B7: 60K-PEG-IL22-D109C (ligand)
chain: B1 chain with D76C
modifications: Cys at position 76 (SEQ ID NO:1 numbering) conjugated to 60 kDa PEG-maleimide (thioether linkage)
B8: 80K-PEG-IL22-D109C (ligand)
chain: B1 chain with D76C
modifications: Cys at position 76 (SEQ ID NO:1 numbering) conjugated to 80 kDa PEG-maleimide (thioether linkage)
B9: 40K-PEG-IL22-P120C (ligand)
chain: B1 chain with P87C
modifications: Cys at position 87 (SEQ ID NO:1 numbering) conjugated to 40 kDa PEG-maleimide (thioether linkage)
B10: 60K-PEG-IL22-P120C (ligand)
chain: B1 chain with P87C
modifications: Cys at position 87 (SEQ ID NO:1 numbering) conjugated to 60 kDa PEG-maleimide (thioether linkage)
B11: 80K-PEG-IL22-P120C (ligand)
chain: B1 chain with P87C
modifications: Cys at position 87 (SEQ ID NO:1 numbering) conjugated to 80 kDa PEG-maleimide (thioether linkage)

Tests used:
Test in all cases: cell-based or functional assay
[1] = biological target: heterodimeric receptor complex (IL-22Rα/IL-10Rβ) (human) (UniProt Q8N6P7)
[2] = biological target: T1, heterodimeric receptor complex (IL-22Rα/IL-10Rβ) (human, UniProt Q8N6P7 16-574; Q08334 20-325)
T1 sequence (looked up) 1: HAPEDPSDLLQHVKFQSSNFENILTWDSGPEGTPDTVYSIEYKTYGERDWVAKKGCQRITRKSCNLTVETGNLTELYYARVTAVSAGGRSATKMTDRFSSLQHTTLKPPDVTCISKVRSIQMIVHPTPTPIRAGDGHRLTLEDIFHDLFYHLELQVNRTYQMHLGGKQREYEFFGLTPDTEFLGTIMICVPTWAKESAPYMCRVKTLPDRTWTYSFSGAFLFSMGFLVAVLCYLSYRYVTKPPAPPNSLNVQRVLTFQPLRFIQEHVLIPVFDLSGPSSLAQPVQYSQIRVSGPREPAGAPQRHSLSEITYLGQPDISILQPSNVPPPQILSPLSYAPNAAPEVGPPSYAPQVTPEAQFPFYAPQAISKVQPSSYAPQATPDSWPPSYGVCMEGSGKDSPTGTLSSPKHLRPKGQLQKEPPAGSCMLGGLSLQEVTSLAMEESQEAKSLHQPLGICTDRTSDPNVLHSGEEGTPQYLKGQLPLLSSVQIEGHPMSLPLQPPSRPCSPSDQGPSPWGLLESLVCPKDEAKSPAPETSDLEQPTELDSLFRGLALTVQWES
T1 sequence (looked up) 2: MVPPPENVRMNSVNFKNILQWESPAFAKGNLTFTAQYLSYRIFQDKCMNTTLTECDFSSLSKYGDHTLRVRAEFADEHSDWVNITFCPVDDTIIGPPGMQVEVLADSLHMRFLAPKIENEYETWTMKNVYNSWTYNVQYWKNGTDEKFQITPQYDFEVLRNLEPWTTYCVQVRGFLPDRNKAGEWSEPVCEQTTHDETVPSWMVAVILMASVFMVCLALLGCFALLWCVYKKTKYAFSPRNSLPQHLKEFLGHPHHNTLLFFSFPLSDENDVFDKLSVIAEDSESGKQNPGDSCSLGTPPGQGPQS

[3] = biological target: T1, heterodimeric receptor complex …; remark: listed apart in the source
[4] = biological target: T1, heterodimeric receptor complex …; remark: listed apart in the source
[5] = biological target: T1, heterodimeric receptor complex …; remark: listed apart in the source
[6] = biological target: T1, heterodimeric receptor complex …; remark: listed apart in the source

Molecule | STAT1/STAT3 EC50 ratio (higher is better); FACS, HT29 cells [5] | STAT1 Activation EC50 (nM); pSTAT1 FACS, HT29 cells [5] | STAT3 Activation EC50 (nM); pSTAT3 FACS, HT29 cells [5] | also measured
IL-22-Fc (Fc fusion) | – | – | – | EC50 for STAT1 Activation (nM); pSTAT1 FACS, HT-29 cells [1]: 49.9 nM; EC50 for STAT3 Activation (nM); pSTAT3 FACS, HT-29 cells [1]: 12.9 nM; HaCaT: HT29 ratio (higher is better); p-STAT3 EC50, FACS [1]: 5.8; STAT1/STAT3 EC50 ratio (higher is better); FACS, HT29 cells [1]: 3.2; STAT1/STAT3 EC50 ratio (higher is better); FACS, HT-29 cells [1]: 3.9; STAT1 Activation EC50 (nM); pSTAT1 FACS, HT29 cells [1]: 12.6 nM; STAT3 Activation EC50 (nM); pSTAT3 FACS, HT29 cells [1]: 3.9 nM; p-STAT3 EC50 (nM), HaCaT; FACS [1]: 22.7 nM
B1 | – | – | – | EC50 fold change of the test candidate relative to wt IL-22; STAT3 reporter gene assay, COLO205/SIE cells (Assay1) [2]: 1 fold; EC50 fold change of the test candidate relative to wt IL-22; STAT3 reporter gene assay, COLO205/SIE cells (Assay2) [2]: 1 fold; EC50 for STAT3 Activation (nM); STAT3 reporter gene assay, COLO205/SIE cells (Assay1) [2]: 0.00529 nM; EC50 for STAT3 Activation (nM); STAT3 reporter gene assay, COLO205/SIE cells (Assay2) [2]: 0.00303 nM; STAT1/STAT3 Ratio (higher is better); ELISA, COLO205 cells [3]: 1; STAT1 Activation EC50 (nM); p-STAT1 ELISA, COLO205 cells [3]: 0.939 nM; STAT1 Activation, Fold change relative to wt IL-22; p-STAT1 ELISA, COLO205 cells [3]: 1 fold; STAT3 Activation EC50 (nM); p-STAT3 ELISA, COLO205 cells [3]: 0.0663 nM; STAT3 Activation, Fold change relative to wt IL-22; p-STAT3 ELISA, COLO205 cells [3]: 1 fold
B2 | 9.3 | 23 nM | 2.47 nM | STAT1/STAT3 Ratio (higher is better); ELISA, COLO205 cells [3]: 2.34; STAT1 Activation EC50 (nM); p-STAT1 ELISA, COLO205 cells [3]: 17.4 nM; STAT1 Activation, Fold change relative to wt IL-22; p-STAT1 ELISA, COLO205 cells [3]: 18.5 fold; STAT3 Activation EC50 (nM); p-STAT3 ELISA, COLO205 cells [3]: 0.525 nM; STAT3 Activation, Fold change relative to wt IL-22; p-STAT3 ELISA, COLO205 cells [3]: 7.92 fold; EC50 for STAT1 Activation (nM); pSTAT1 FACS, HT-29 cells [4]: 279 nM; EC50 for STAT3 Activation (nM); pSTAT3 FACS, HT-29 cells [4]: 4.13 nM; STAT1/STAT3 EC50 ratio (higher is better); FACS, HT-29 cells [4]: 67.5
B3 | 7.8 | 369 nM | 47.5 nM | –
B4 | 2.4 | 134 nM | 55.5 nM | –
B5 | 3.3 | 62.3 nM | 18.9 nM | –
B6 | 31.3 | 10.9 nM | 0.348 nM | –
B7 | 16.3 | 9.41 nM | 0.577 nM | HaCaT: HT29 ratio (higher is better); p-STAT3 EC50, FACS [6]: 12.9; p-STAT3 EC50 (nM), HaCaT; FACS [6]: 7.44 nM
B8 | 7.1 | 7 nM | 0.984 nM | –
B9 | 9.1 | 55.3 nM | 6.05 nM | –
B10 | 7.6 | 86.2 nM | 11.4 nM | HaCaT: HT29 ratio (higher is better); p-STAT3 EC50, FACS [6]: 37.7; p-STAT3 EC50 (nM), HaCaT; FACS [6]: 428 nM
B11 | 29 | 574 nM | 19.8 nM | –
